Measured values as given in the supplement of paper PMC7877785.
± gives the uncertainty stated by the source.

Assay: self-splicing fitness, log relative to wild type (ln ratio); higher = more splicing; Tetrahymena group I intron in knt gene, E. coli kanamycin selection, DiMSum; sequences stand for … in CUCUCU…GGAGGGAAAAGUUAUCAGGCAUGCACCUGGUAGCUAGUCUUUAAACCAAUAGAUUGCAUCGGUUUAAAAGGCAAGACCGUCAAAUUGCGGGAAAGGGGUCAACAGCCGUUCAGUACCAAGUCUCAGGGGAAACUUUGAGAUGGCCUUGCAAAGGGUAUGGUAAUAAGCUGACGGACAUGGUCCUAACCACGCAGCCAAGUCCUAAGUCAACAGAUCUUCUGUUGAUAUGGAUGCAGUUCACAGACUAAAUGUCGGUCGGGGAAGAUGUAUUCUUCUCAUAAGAUAUAGUCGGACCUCUCCUUAAUGGGAGCUAGCGGAUGAAGUGAUGCAACACUGGAGCCGCUGGGAACUAAUUUGUAUGCGAAAGUAUAUUGAUUAGUUUUGGAGUACUCGUGGUCG
Summary of the method: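 The eight P1ex-region nucleotides of an intron in the knt kanamycin-resistance gene on pET-22b(+) were all randomised and the library put into E. coli BL21(DE3). Six replicate transformations were grown overnight at 37°C or 30°C on LB agar with or without 25 μg/mL kanamycin, together with 100 μg/mL carbenicillin, 50 μM IPTG and 0.2% rhamnose. Colonies were pooled and amplicon-sequenced on an Illumina HiSeq 2500. Fitness from DiMSum is the error-weighted combination of wild-type-normalised replicate fold changes, kanamycin over none.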

Sequence | self-splicing fitness (ln) (30 °C) | self-splicing fitness (ln) (37 °C)
UGCCAGCAAUAUUACGAGUG | -1.32 ± 0.064 | -0.537 ± 0.079
UGCCAGCAAUAUUACGAUAA | -1.88 ± 0.14 | -1.19 ± 0.15
UGCCAGCAAUAUUACGCAAU | -4.51 ± 0.2 | -2.59 ± 0.13
UGCCAGCAAUAUUACGCACC | -2.19 ± 0.28 | -1.32 ± 0.35
UGCCAGCAAUAUUACGCAGC | – | -2.15 ± 0.42
UGCCAGCAAUAUUACGCGUG | -1.71 ± 0.086 | -0.381 ± 0.089
UGCCAGCAAUAUUACGCUGC | -3.85 ± 0.31 | -2.47 ± 0.28
UGCCAGCAAUAUUACGCUGG | -3.35 ± 0.24 | -2.63 ± 0.28
UGCCAGCAAUAUUACGCUUA | -0.602 ± 0.063 | 0.791 ± 0.084
UGCCAGCAAUAUUACGGCAG | -2.25 ± 0.093 | -1.15 ± 0.1
UGCCAGCAAUAUUACGGCUC | -2.89 ± 0.21 | -1.48 ± 0.23
UGCCAGCAAUAUUACGGGAC | -3.51 ± 0.34 | -1.95 ± 0.3
UGCCAGCAAUAUUACGGGAU | -3.16 ± 0.13 | -2.44 ± 0.18
UGCCAGCAAUAUUACGGGCA | -3.85 ± 0.27 | -2.48 ± 0.24
UGCCAGCAAUAUUACGGGGU | -3.57 ± 0.21 | -2.48 ± 0.2
UGCCAGCAAUAUUACGUAAU | -2.36 ± 0.14 | -2.16 ± 0.18
UGCCAGCAAUAUUACGUAUC | -3.22 ± 0.19 | -3.05 ± 0.28
UGCCAGCAAUAUUACGUCGU | -2.68 ± 0.14 | -1.9 ± 0.15
UGCCAGCAAUAUUACGUGUA | -1.26 ± 0.058 | -0.551 ± 0.059
UGCCAGCAAUAUUACGUUCU | -2.37 ± 0.17 | -1.23 ± 0.14
UGCCAGCAAUAUUACGUUUA | -2.56 ± 0.086 | -1.51 ± 0.072
UGCGAGCAAUAUUACGAAAU | -2.85 ± 0.18 | -2.65 ± 0.38
UGCGAGCAAUAUUACGAACG | -1.07 ± 0.14 | -1.05 ± 0.16
UGCGAGCAAUAUUACGAAGC | – | -2.3 ± 0.42
UGCGAGCAAUAUUACGAUAU | – | -2.61 ± 0.36

Sequence | self-splicing fitness (ln) (30 °C) | self-splicing fitness (ln) (37 °C)
UGCGAGCAAUAUUACGAUCA | 0.0986 ± 0.13 | 0.104 ± 0.14
UGCGAGCAAUAUUACGAUCG | -2.97 ± 0.27 | -1.38 ± 0.17
UGCGAGCAAUAUUACGAUUC | -2.7 ± 0.23 | –
UGCGAGCAAUAUUACGCACA | -1.31 ± 0.22 | -2.16 ± 0.28
UGCGAGCAAUAUUACGCAGC | – | -1.49 ± 0.37
UGCGAGCAAUAUUACGCAUA | -3.48 ± 0.43 | -3 ± 0.36
UGCGAGCAAUAUUACGCCAG | -4.1 ± 0.42 | –
UGCGAGCAAUAUUACGCCUU | – | -1.7 ± 0.38
UGCGAGCAAUAUUACGCGAA | -3.08 ± 0.19 | -2.19 ± 0.19
UGCGAGCAAUAUUACGCGGA | -2.41 ± 0.28 | -2.09 ± 0.31
UGCGAGCAAUAUUACGCGUA | -4.01 ± 0.32 | -1.6 ± 0.14
UGCGAGCAAUAUUACGCUAU | – | -2.46 ± 0.38
UGCGAGCAAUAUUACGCUUG | -3.11 ± 0.37 | -2.05 ± 0.3
UGCGAGCAAUAUUACGGCCA | -0.517 ± 0.13 | 0.5 ± 0.15
UGCGAGCAAUAUUACGGGCU | -2.97 ± 0.25 | –
UGCGAGCAAUAUUACGGGUU | -3.38 ± 0.16 | -2.51 ± 0.16
UGCGAGCAAUAUUACGUAAG | -3.72 ± 0.26 | -2.34 ± 0.28
UGCGAGCAAUAUUACGUAAU | -2.35 ± 0.22 | -1.91 ± 0.24
UGCGAGCAAUAUUACGUCCG | -3.31 ± 0.4 | -0.194 ± 0.31
UGCGAGCAAUAUUACGUCCU | -2.35 ± 0.14 | -0.627 ± 0.15
UGCGAGCAAUAUUACGUGCC | -3.9 ± 0.47 | -2.55 ± 0.33
UGCGAGCAAUAUUACGUGCU | – | -1.79 ± 0.32
UGCGAGCAAUAUUACGUGGA | -3.04 ± 0.23 | -3.49 ± 0.33
UGCGAGCAAUAUUACGUUAA | -2.48 ± 0.29 | -2.45 ± 0.31
UGCGAGCAAUAUUACGUUCC | -2.19 ± 0.18 | -2.66 ± 0.34

Sequence | self-splicing fitness (ln) (30 °C) | self-splicing fitness (ln) (37 °C)
UGCGAGCAAUAUUACGUUGA | -3.05 ± 0.27 | -3.53 ± 0.32
UGCUAGCAAUAUUACGACGG | -0.768 ± 0.16 | -0.44 ± 0.18
UGCUAGCAAUAUUACGAGCG | -2.86 ± 0.2 | -0.792 ± 0.17
UGCUAGCAAUAUUACGAUCC | -0.317 ± 0.41 | –
UGCUAGCAAUAUUACGAUUG | -1.16 ± 0.13 | -1.51 ± 0.14
UGCUAGCAAUAUUACGCCGG | -0.985 ± 0.22 | -1.88 ± 0.5
UGCUAGCAAUAUUACGCGAG | -4.4 ± 0.39 | -2.11 ± 0.31
UGCUAGCAAUAUUACGCGUA | -0.838 ± 0.11 | -0.531 ± 0.1
UGCUAGCAAUAUUACGCGUG | -0.934 ± 0.074 | -0.462 ± 0.082
UGCUAGCAAUAUUACGCUAU | -2.75 ± 0.21 | -0.801 ± 0.12
UGCUAGCAAUAUUACGGAUG | -0.534 ± 0.086 | -0.268 ± 0.1
UGCUAGCAAUAUUACGGCCG | -0.359 ± 0.12 | 0.337 ± 0.14
UGCUAGCAAUAUUACGGUAC | – | -0.887 ± 0.39
UGCUAGCAAUAUUACGUAAU | -2.42 ± 0.11 | -1.34 ± 0.13
UGCUAGCAAUAUUACGUCCG | -0.00657 ± 0.11 | 0.18 ± 0.14
UGCUAGCAAUAUUACGUCUA | -1.21 ± 0.11 | -0.84 ± 0.1
UGCUAGCAAUAUUACGUGCC | – | -0.724 ± 0.3
UGCUAGCAAUAUUACGUUAG | -3.08 ± 0.19 | -3.02 ± 0.33
UGGAAGCAAUAUUACGAAAU | -3.52 ± 0.29 | -2.27 ± 0.22
UGGAAGCAAUAUUACGAAGU | -3.57 ± 0.35 | –
UGGAAGCAAUAUUACGACUG | -1.26 ± 0.24 | -0.683 ± 0.24
UGGAAGCAAUAUUACGAUCC | -2.44 ± 0.47 | -2.1 ± 0.41
UGGAAGCAAUAUUACGAUGG | -2.38 ± 0.14 | -0.0527 ± 0.12
UGGAAGCAAUAUUACGCACA | -1.44 ± 0.2 | 0.0258 ± 0.2
UGGAAGCAAUAUUACGCAGG | -3.1 ± 0.42 | -1.47 ± 0.4

Sequence | self-splicing fitness (ln) (30 °C) | self-splicing fitness (ln) (37 °C)
UGGAAGCAAUAUUACGCCUA | 0.049 ± 0.092 | -0.109 ± 0.12
UGGAAGCAAUAUUACGCGGU | -2.87 ± 0.17 | -2.69 ± 0.2
UGGAAGCAAUAUUACGGACC | -0.695 ± 0.088 | -0.372 ± 0.11
UGGAAGCAAUAUUACGGAGG | -2.93 ± 0.27 | -0.696 ± 0.15
UGGAAGCAAUAUUACGGAUU | -1.49 ± 0.08 | -1.68 ± 0.12
UGGAAGCAAUAUUACGUAAA | -2.28 ± 0.21 | 0.0471 ± 0.21
UGGAAGCAAUAUUACGUCUC | – | -2.47 ± 0.32
UGGAAGCAAUAUUACGUGCG | -0.442 ± 0.054 | 0.0701 ± 0.075
UGGAAGCAAUAUUACGUGGA | -2.88 ± 0.16 | -0.926 ± 0.12
UGGAAGCAAUAUUACGUUUA | -0.859 ± 0.072 | -0.47 ± 0.086
UGGCAGCAAUAUUACGAAAC | – | -1.52 ± 0.32
UGGCAGCAAUAUUACGAAUG | -0.811 ± 0.061 | 0.188 ± 0.079
UGGCAGCAAUAUUACGACAA | -0.602 ± 0.14 | -0.308 ± 0.16
UGGCAGCAAUAUUACGAGAA | -1.11 ± 0.32 | -1.62 ± 0.31
UGGCAGCAAUAUUACGAGCG | -0.577 ± 0.12 | 0.0222 ± 0.17
UGGCAGCAAUAUUACGAGCU | -1.98 ± 0.16 | -1.91 ± 0.19
UGGCAGCAAUAUUACGAGGG | -3.44 ± 0.23 | -2.73 ± 0.25
UGGCAGCAAUAUUACGAGUC | -2.79 ± 0.17 | -3.11 ± 0.23
UGGCAGCAAUAUUACGCCCC | -1.11 ± 0.29 | -0.487 ± 0.36
UGGCAGCAAUAUUACGCGCU | – | -2.45 ± 0.49
UGGCAGCAAUAUUACGCUCG | -0.792 ± 0.083 | -0.0749 ± 0.11
UGGCAGCAAUAUUACGCUUG | -2.46 ± 0.12 | -0.728 ± 0.15
UGGCAGCAAUAUUACGGAGG | -2.38 ± 0.12 | -1.87 ± 0.15
UGGCAGCAAUAUUACGGAUG | -1.79 ± 0.17 | -0.817 ± 0.19
UGGCAGCAAUAUUACGGGGA | -2.26 ± 0.13 | -2.03 ± 0.14
